This test deals with T1, amylin receptor (nucleus accumbens membranes prepared from rat brain) (rat), P32214.
T1 chain 1: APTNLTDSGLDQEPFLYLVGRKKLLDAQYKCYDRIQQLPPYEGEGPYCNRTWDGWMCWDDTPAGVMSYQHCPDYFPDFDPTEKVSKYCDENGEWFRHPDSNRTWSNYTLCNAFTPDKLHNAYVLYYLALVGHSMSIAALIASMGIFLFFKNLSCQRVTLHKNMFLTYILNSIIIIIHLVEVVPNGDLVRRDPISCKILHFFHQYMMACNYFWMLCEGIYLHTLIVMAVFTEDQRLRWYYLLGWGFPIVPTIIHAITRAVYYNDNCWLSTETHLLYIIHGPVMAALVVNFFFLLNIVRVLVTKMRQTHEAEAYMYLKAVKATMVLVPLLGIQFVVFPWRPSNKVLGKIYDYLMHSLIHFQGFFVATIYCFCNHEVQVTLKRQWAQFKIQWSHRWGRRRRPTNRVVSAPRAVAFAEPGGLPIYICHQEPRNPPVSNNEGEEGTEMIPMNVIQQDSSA
T1 chain 2: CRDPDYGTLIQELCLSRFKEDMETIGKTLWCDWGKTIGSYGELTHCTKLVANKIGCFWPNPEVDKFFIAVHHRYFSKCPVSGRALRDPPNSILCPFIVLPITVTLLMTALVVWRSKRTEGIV
Briefly: radioligand displacement, 125I-rat amylin, rat nucleus accumbens membranes. Background: Displacement assays read how much labelled ligand stays bound in the presence of the test substance.

B1: r/h Calcitonin (peptide)
chain: CGNLSTCMLGTYTQDFNKFHTFPQTAIGVGAP
modifications: not checked
The term IC50 denotes the concentration needed to halve the response being measured. Low values mean inhibition by little substance, high ones a need for much substance. In turn, B1 gave an IC50 of 100 nM.

The values above are taken from US20080207501A1.
